Experimental data reported in the supplement of paper PMC10567573.

B1: INTS3 (parent)
chain: YPPLEGHVRQGVFSSLNHIVEKRV
B2: TMEM106C (parent)
chain: FTGRDSITCLTCQGTGYIPTEQVN

Variants of: B1
Assay: protein stability index of a GFP-peptide fusion (GPS, HEK-293T) (PSI 1-6); higher = more stable
Conditions: c terminus: a fixed tail appended
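Note: lentivirally expressed fusions sorted by FACS into six bins by GFP to DsRed ratio, PSI derived from sequencing read proportions per bin multiplied by bin number.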

Variant | protein stability index
E21R | 2.45
E21Q | 1.79
E21L | 2.29
E21M | 2.75
E21T | 2.54
E21S | 2.05
E21N | 2.21
E21I | 1.74
E21C | 2.23
E21V | 2.48
E21A | 2.23
L16K | 3.35
L16H | 2.94
L16W | 2.1
L16C | 2.24
L16E | 3.65
L16T | 2.77
L16P | 2.93
L16Q | 3.01
L16S | 2.49
L16D | 4.2
L16Y | 2.22
L16F | 2.14
L16I | 2.31

Variant | protein stability index
L16G | 3.18
L16A | 3.33
I19W | 3.41
I19K | 2.37
I19L | 1.83
I19G | 2.57
I19Y | 2.07
I19D | 3.11
I19S | 2.53
P3W | 1.49
P3E | 2.86
P3R | 2.63
P3T | 2.4
P3N | 2.04
P3S | 3.19
P3Q | 2.87
P3D | 3.11
P3I | 3.38
P2M | 2.1
P2S | 1.97
P2C | 1.78
P2G | 2.85
P2Q | 2.02
P2R | 3.48

Variant | protein stability index
P2T | 1.6
P2N | 1.82
P2V | 1.36
Q10N | 1.96
Q10C | 2.73
Q10G | 2.82
Q10W | 1.49
Q10Y | 1.99
Q10M | 1.98
Q10A | 2.19
Q10P | 2.3
Q10L | 1.72
E5Q | 2.02
E5L | 2.14
E5I | 1.73
E5C | 2.08
E5V | 1.49
E5S | 1.84
E5P | 2.14
E5K | 2.1
E5G | 3.59
E5N | 2.05
E5D | 3.54
G6Q | 2.74

Variant | protein stability index
G6S | 2.73
G6R | 2.3
G6N | 2.86
G6F | 2.2
G6C | 2.39
G6I | 1.76
G6A | 2.38
G6V | 2.07
S15M | 2.43
S15A | 2.23
S15V | 2.92
S15G | 2.58
S15K | 2.31
S15E | 2.17
S15P | 1.54
S15R | 2.12
S15N | 2.4
R9F | 2.09
R9H | 2.96
R9W | 1.72
R9P | 2.77
R9K | 2.94
R9C | 2.06
Y1K | 4.07

Variant | protein stability index
Y1F | 2.88
Y1P | 3.94
Y1N | 4.12
Y1Q | 3.48
Y1E | 3.96
H18C | 2.01
H18L | 1.77
H18E | 2.91
H18W | 1.39
H18Y | 1.83
H18I | 1.99
H18Q | 2.76
H18N | 2.78
H18A | 1.86
H18K | 2.86
V24T | 2.09
V24D | 3.16
V24N | 2.83
V24H | 2.29
V24E | 3.32
V24K | 2.4
V24A | 3.31
V24R | 2.9
V24Q | 2.57

Variant | protein stability index
V24M | 2.06
R23N | 2.6
R23H | 2.4
R23W | 2.62
R23E | 2.68
R23S | 2.67
R23M | 1.7
V8W | 1.78
V8Q | 2.85
V8H | 2.48
V8Y | 2.21
V8R | 2.75
V8A | 2.46
V8M | 2.46
V8F | 2.23
G11R | 2.18
G11D | 2.59
G11Y | 1.85
G11V | 2.33
G11A | 2.31
G11M | 1.79
G11F | 1.8
G11W | 1.34
G11S | 2.54

Variant | protein stability index
G11K | 2.93
G11N | 2.29
G11L | 1.85
S14E | 2.73
S14G | 2.61
S14T | 2.56
S14H | 2.63
S14Y | 1.66
S14V | 2.29
S14L | 1.73
S14F | 1.79
S14C | 1.5
N17T | 2.04
N17K | 2.28
N17P | 2.4
N17H | 2.21
N17W | 2.26
N17I | 1.86
N17D | 3.07
N17C | 1.86
N17Y | 1.71
N17Q | 2.34
N17V | 1.99
H7T | 2.56

Variant | protein stability index
H7Y | 1.47
H7L | 2.2
H7K | 2.21
H7I | 2.21
H7A | 2.68
H7R | 2.22
H7P | 2.01
H7S | 2.97
H7F | 2.42
F13E | 3.99
F13T | 2.98
F13D | 4.31
F13C | 2.98
F13Y | 2.84
F13L | 3.77
F13M | 3.36
F13S | 3.65
L4M | 2.45
L4K | 2.64
L4H | 3.01
L4R | 2.32
L4C | 2.21
L4N | 2.19
L4S | 2.58

Variant | protein stability index
L4D | 2.46
V20I | 2.04
V20L | 2.2
V20A | 2.7
V20F | 2.78
V20W | 2.02
V12E | 3.46
V12D | 3.44
V12P | 3.19
V12N | 3.15
V12S | 2.11
V12F | 2.69
V12M | 2.36
V12I | 2.37
K22C | 1.43
K22W | 2.14
K22G | 1.92
K22M | 1.73
K22P | 3.01
K22A | 2.29
K22H | 2.65
K22T | 2.23
K22L | 2.33
K22E | 2.63

Variants of: B2
Assay: as above
Conditions: c terminus: a fixed tail appended

Variant | protein stability index
P19F | 2.43
P19I | 1.84
P19R | 1.26
P19Y | 1.78
P19Q | 2.05
P19C | 2.29
P19D | 1.76
P19H | 2.35
P19S | 2.23
P19M | 2.15
P19K | 2
P19T | 2.21
P19L | 2.29
P19W | 2.29
P19G | 1.63
P19E | 2.02
P19N | 1.96
P19V | 2.67
P19A | 2.04
E21F | 1.22
E21A | 1.79
E21P | 2.2
E21C | 3.11
E21N | 2.39

Variant | protein stability index
E21D | 1.82
E21R | 2.03
E21Y | 2.67
E21V | 2.59
E21Q | 1.94
E21K | 1.65
E21H | 1.79
E21M | 1.75
E21S | 1.94
E21W | 1.84
E21G | 1.76
E21I | 2.16
E21T | 2.08
E21L | 2.03
N24L | 1.91
N24G | 2.29
N24K | 2.33
N24Q | 1.96
N24R | 2.37
N24I | 1.44
N24Y | 2.11
N24T | 2
N24V | 2.24
N24E | 2.47

Variant | protein stability index
N24P | 1.76
N24F | 1.92
N24W | 3.36
N24A | 1.89
N24H | 2.07
N24M | 1.84
N24C | 2.25
N24D | 2.21
N24S | 2.27
T20Q | 2.65
T20Y | 2.17
T20D | 2.56
T20W | 1.71
T20M | 1.93
T20S | 2.07
T20A | 2.11
T20R | 2.27
T20P | 1.74
T20I | 1.99
T20C | 1.83
T20L | 2.19
T20N | 1.8
T20H | 1.92
T20F | 1.89

Variant | protein stability index
T20G | 1.45
T20V | 2.23
T20E | 1.66
T20K | 1.92
I18T | 3.01
I18Y | 1.68
I18W | 1.86
I18V | 1.64
V23A | 2.21
V23M | 1.88
V23N | 2.12
V23P | 1.89
V23C | 2.25
V23T | 2.09
V23K | 2.3
V23E | 1.79
V23W | 1.87
V23Q | 1.72
V23Y | 1.79
V23H | 2.11
V23L | 1.7
V23S | 1.51
V23D | 1.54
V23I | 1.47

Variant | protein stability index
V23F | 1.73
V23R | 2.13
V23G | 1.75
Q22V | 2.16
Q22K | 1.85
Q22S | 1.79
Q22W | 1.88
Q22P | 1.73
Q22I | 1.95
Q22N | 2.26
Q22D | 1.86
Q22A | 2.07
Q22Y | 1.9
Q22L | 2.52
Q22M | 2.42
Q22H | 1.47
Q22G | 2.84
Q22T | 2.2
Q22F | 1.85
Q22E | 1.73
Q22R | 2.13
Q22C | 2
